Measurements taken from US20220228157A1, “GENE EDITING IN DIVERSE BACTERIA” (priority 2019, published 2022).

Experiments:
M. smegmatis = experiment: Allelic recombination frequency, selective vs non-selective plates; format: cell-based, Mycobacterium smegmatis
Method: A single colony of M. smegmatis was grown overnight to saturation. The next day 25 μL of dense culture was inoculated into 5 mL of fresh media in the evening and grown overnight to an OD600 of 0.9. Cells were pelleted at 4° C. by centrifugation at 3,500×g for 10 minutes and washed twice with 10 mL ice-cold 10% glycerol. Cells were resuspended in 360 μL ice-cold 10% glycerol and transferred along with 10 μL of DNA to a pre-chilled 0.2 cm electroporation cuvette.
Electrocompetent cells were electroporated with 90-mer oligos at: 1 uM for E. coli, 50 μg for L. lactis, and 10 uM for C. crescentus. 70-mer oligos were used at 1 μg for M. smegmatis. All oligos were obtained from IDT and can be found under “Oligonucleotides for genome editing” in materials and methods. For dsDNA experiments L. lactis was electroporated with 1.5 μg purified linear dsDNA. Cells were electroporated using a Bio-Rad gene pulser set to 25 μF, 200 S2, and 1.8 kV for E. coli, 2.0 kV for L. lactis, and 1.5 kV for C. crescentus and to 1000Ω and 2.5 kV for M. smegmatis. […] Colonies were counted using a custom script in Fiji, and allelic recombination frequency was calculated by dividing the number of colonies on selective plates, with the number of colonies on non-selective plates.

E. coli [1] = experiment: Editing efficiency by NGS, non-coding mismatch at a non-essential gene; format: cell-based, Escherichia coli; conditions: silent mismatch MAGE oligo, SEER plasmid system
Method: Top-performing SSAPs and SSAP/SSB pairs from experiments in E. coli, L. lactis, and M. smegmatis are shown in FIG. 2A, FIG. 2B and FIG. 2C, respectively. Bars in red are the proteins that had previously been reported in the literature. The proteins listed were found after ten rounds of selection for protein variants that enabled the introduction of an oligonucleotide that conferred a genomic edit that provided antibiotic resistance. Unbiased editing efficiency was tested in each case by introducing a non-coding base change at a non-essential gene and measuring the frequency of incorporation via next generation sequencing.
Their recombineering efficiency was tested against Redβ expressed off of its wild-type codons on the same plasmid system used for the SEER selections. […]
The efficiency of each SSAP or SSAP/SSB pair was measured by expressing them off of their host-specific plasmid in the naïve parent strain and running a recombineering cycle with an oligo that confers a 4-nucleotide non-coding mismatch in a non-essential gene. The allele was then amplified by PCR and editing efficiency was measured by next-generation sequencing.
To measure single locus editing, a recombineering cycle was run with an oligo that confers a single base pair non-coding mismatch in a non-essential gene. The allele was then amplified by PCR and editing efficiency was measured by NGS as described above. […]

E. coli [2] = experiment: Fifteen cycles of MAGE with pool of 15 oligos, editing efficiency by NGS; format: cell-based, Escherichia coli; conditions: 15 separate mutations, one week
Method: E. coli populations expressing either an efficient SSAP (SEQ ID NO: 157), an efficient SSAP/SSB pair (SEQ ID NO: 157/SEQ ID NO: 384), or the widely-used Redβ were taken through fifteen cycles of MAGE and transformed each cycle with a 10 μM pool comprising 15 unique oligos. Editing efficiency at each targeted locus was measured by NGS and averaged (FIG. 3).

B1: PapRecT: SSAP from Pseudomonas aeruginosa, SEQ ID NO: 24, UniParc ID: UPI0001E9E6CB (protein, listed as Pseudomonas aeruginosa)
chain: MGTALTPLLTKFATRYEMGTTPEEVANTLKQTCFKGQVNDSQMVALLIVADQYKLNPFTKELYAFPDKNNGIVPVVGVDGWARIINENPQFDGMEFSMDQQGTECTCKIYRKDRSHAISATEYMAECKRNTQPWQSHPRRMLRHKAMIQCARLAFGFAGIYDQDEAERIVERDVTPAEQYEDVSEAICLIKDSPTMEDLQAAFSNAWKAYKTKGARDQLTAAKDQRKKELLDAPIDVEFEETGDDRAA
- Editing efficiency (M. smegmatis): enabled high efficiency editing
- Efficiency of recombineering at ynfF by NGS (E. coli [1]): 31%±2%

B2: Redβ: Redβ SSAP from Enterobacteria phage λ, SEQ ID NO: 474 (protein)
chain: MSTALATLAGKLAERVGMDSVDPQELITTLRQTAFKCDASDAQFIALLIVANQYGLNPWTKEIYAFPDKQNGIVPVVGVDGWSRIINENQQFDGMDFEQDNESCTCRIYRKDRNHPICVTEWMDECRREPFKTREGREITGPWQSHPKRMLRHKAMIQCARLAFGFAGIYDKDEAERIVENTAYTAERQPERDITPVNDETMQEINTLLIALDKTWDDDLLPLCSQIFRRDIRASSELTQAEAVKALGFLKQKATEQKVAA
modifications: Bacteriophage Lambda
- Editing efficiency, averaged over targeted loci (E. coli [2]): ~20%
